{
  "source": "paper PMC10268231",
  "about": "(Nature, 2021)",
  "binders": {"B1": {"name": "CTC1 (natural protein, human, UniProt Q2NKJ3 1-1217, looked up)", "chain": "MAAGRAQVPSSEQAWLEDAQVFIQKTLCPAVKEPNVQLTPLVIDCVKTVWLSQGRNQGSTLPLSYSFVSVQDLKTHQRLPCCSHLSWSSSAYQAWAQEAGPNGNPLPREQLLLLGTLTDLSADLEQECRNGSLYVRDNTGVLSCELIDLDLSWLGHLFLFPRWSYLPPARWNSSGEGHLELWDAPVPVFPLTISPGPVTPIPVLYPESASCLLRLRNKLRGVQRNLAGSLVRLSALVKSKQKAYFILSLGRSHPAVTHVSIIVQVPAQLVWHRALRPGTAYVLTELRVSKIRGQRQHVWMTSQSSRLLLLKPECVQELELELEGPLLEADPKPLPMPSNSEDKKDPESLVRYSRLLSYSGAVTGVLNEPAGLYELDGQLGLCLAYQQFRGLRRVMRPGVCLQLQDVHLLQSVGGGTRRPVLAPCLRGAVLLQSFSRQKPGAHSSRQAYGASLYEQLVWERQLGLPLYLWATKALEELACKLCPHVLRHHQFLQHSSPGSPSLGLQLLAPTLDLLAPPGSPVRNAHNEILEEPHHCPLQKYTRLQTPSSFPTLATLKEEGQRKAWASFDPKALLPLPEASYLPSCQLNRRLAWSWLCLLPSAFCPAQVLLGVLVASSHKGCLQLRDQSGSLPCLLLAKHSQPLSDPRLIGCLVRAERFQLIVERDVRSSFPSWKELSMPGFIQKQQARVYVQFFLADALILPVPRPCLHSATPSTPQTDPTGPEGPHLGQSRLFLLCHKEALMKRNFCVPPGASPEVPKPALSFYVLGSWLGGTQRKEGTGWGLPEPQGNDDNDQKVHLIFFGSSVRWFEFLHPGQVYRLIAPGPATPMLFEKDGSSCISRRPLELAGCASCLTVQDNWTLELESSQDIQDVLDANKSLPESSLTDLLSDNFTDSLVSFSAEILSRTLCEPLVASLWMKLGNTGAMRRCVKLTVALETAECEFPPHLDVYIEDPHLPPSLGLLPGARVHFSQLEKRVSRSHNVYCCFRSSTYVQVLSFPPETTISIPLPHIYLAELLQGGQSPFQATASCHIVSVFSLQLFWVCAYCTSICRQGKCTRLGSTCPTQTAISQAIIRLLVEDGTAEAVVTCRNHHVAAALGLCPREWASLLDFVQVPGRVVLQFAGPGAQLESSARVDEPMTMFLWTLCTSPSVLRPIVLSFELERKPSKIVPLEPPRLQRFQCGELPFLTHVNPRLRLSCLSIRESEYSSSLGILASSC"}, "B2": {"name": "PRIM1 (natural protein, human)", "chain": "ETFDPTELPELLKLYYRRLFPYSQYYRWLNYGGVIKNYFQHREFSFTLKDDIYIRYQSFNNQSDLEKEMQKMNPYKIDIGAVYSHRPNQHNTVKLGAFQAQEKELVFDIDMTDYDDVRRCCSSADICPKCWTLMTMAIRIIDRALKEDFGFKHRLWVYSGRRGVHCWVCDESVRKLSSAVRSGIVEYLSLVKGGQDVKKKVHLSEKIHPFIRKSINIIKKYFEEYALVNQDILENKESWDKILALVPETIHDELQQSFQKSHNSLQRWEHLKKVASRYQNNIKNDKYGPWLEWEIMLQYCFPRLDINVSKGINHLLKSPFSVHPKTGRISVPIDLQKVDQFDPFTVPTISFICRELDAISTNEEEKEENEAESDVKHRTRDYKKTSLAPYVKVFEHFLENLDKSRKGELLKKSDLQKDF"}, "B3": {"name": "CTC1–STN1–TEN1 (CST) complex (complex, human)", "chain 1": "B1 chain", "chain 2": "QPGSSRCEEETPSLLWGLDPVFLAFAKLYIRDILDMKESRQVPGVFLYNGHPIKQVDVLGTVIGVRERDAFYSYGVDDSTGVINCICWKKLNTESVSAAPSAARELSLTSQLKKLQETIEQKTKIEIGDTIRVRGSIRTYREEREIHATTYYKVDDPVWNIQIARMLELPTIYRKVYDQPFHSSALEKEEALSNPGALDLPSLTSLLSEKAKEFLMENRVQSFYQQELEMVESLLSLANQPVIHSASSDQVNFKKDTTSKAIHSIFKNAIQLLQEKGLVFQKDDGFDNLYYVTREDKDLHRKIHRIIQQDCQKPNHMEKGCHFLHILACARLSIRPGLSEAVLQQVLELLEDQSDIVSTMEHYYTAF", "chain 3": "LPKPGTYYLPWEVSAGQVPDGSTLRTFGRLCLYDMIQSRVTLMAQHGSDQHQVLVCTKLVEPFHAQVGSLYIVLGELQHQQDRGSVVKARVLTCVEGMNLPLLEQAIREQRLYKQERGGSQ"}, "B4": {"name": "STN1 (natural protein, human)", "chain": "B3 chain 2"}},
  "experiment_in_all_cases": "cryo-EM structure",
  "key": {"POLA1": {"molecular_target": "T1, POLA1 (human, UniProt P09884 1-1462)", "T1 sequence (looked up)": "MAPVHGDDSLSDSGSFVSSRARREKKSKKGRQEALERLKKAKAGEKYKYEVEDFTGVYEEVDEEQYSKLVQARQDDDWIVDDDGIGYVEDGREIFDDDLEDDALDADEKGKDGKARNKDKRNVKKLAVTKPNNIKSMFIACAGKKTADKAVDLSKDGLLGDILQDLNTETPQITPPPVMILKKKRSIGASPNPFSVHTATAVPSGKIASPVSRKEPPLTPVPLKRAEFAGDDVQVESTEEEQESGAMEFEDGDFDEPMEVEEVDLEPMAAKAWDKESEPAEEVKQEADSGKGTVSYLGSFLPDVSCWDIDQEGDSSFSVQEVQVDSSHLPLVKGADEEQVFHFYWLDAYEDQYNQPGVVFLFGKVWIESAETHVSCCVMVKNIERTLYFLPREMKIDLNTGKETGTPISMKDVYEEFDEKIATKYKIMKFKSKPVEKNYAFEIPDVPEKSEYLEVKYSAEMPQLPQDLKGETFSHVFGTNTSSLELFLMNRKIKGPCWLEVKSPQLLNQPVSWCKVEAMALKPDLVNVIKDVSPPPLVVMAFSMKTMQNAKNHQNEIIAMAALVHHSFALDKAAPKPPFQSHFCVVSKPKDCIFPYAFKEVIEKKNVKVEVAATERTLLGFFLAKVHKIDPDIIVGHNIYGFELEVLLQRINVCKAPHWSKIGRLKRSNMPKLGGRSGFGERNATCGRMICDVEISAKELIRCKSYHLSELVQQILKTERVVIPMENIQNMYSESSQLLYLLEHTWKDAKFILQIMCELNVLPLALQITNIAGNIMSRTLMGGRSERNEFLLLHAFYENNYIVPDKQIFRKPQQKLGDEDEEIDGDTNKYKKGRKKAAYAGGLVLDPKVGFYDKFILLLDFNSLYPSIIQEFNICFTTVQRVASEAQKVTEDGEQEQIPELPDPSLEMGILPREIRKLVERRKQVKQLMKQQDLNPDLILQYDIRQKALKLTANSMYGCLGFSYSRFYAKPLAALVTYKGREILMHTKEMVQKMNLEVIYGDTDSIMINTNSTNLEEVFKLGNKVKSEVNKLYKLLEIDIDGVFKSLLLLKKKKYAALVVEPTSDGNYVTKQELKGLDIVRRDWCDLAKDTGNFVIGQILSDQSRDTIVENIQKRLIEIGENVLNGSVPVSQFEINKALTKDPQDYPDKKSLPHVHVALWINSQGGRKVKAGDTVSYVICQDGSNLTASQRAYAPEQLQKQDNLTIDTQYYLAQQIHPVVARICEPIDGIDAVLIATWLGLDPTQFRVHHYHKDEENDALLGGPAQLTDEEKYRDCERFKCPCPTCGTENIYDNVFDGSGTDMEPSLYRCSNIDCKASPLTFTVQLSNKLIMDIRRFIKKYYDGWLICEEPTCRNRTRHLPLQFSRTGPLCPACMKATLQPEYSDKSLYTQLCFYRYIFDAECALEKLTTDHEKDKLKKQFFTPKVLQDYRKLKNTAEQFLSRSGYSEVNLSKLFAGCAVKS"}, "PRIM2": {"molecular_target": "T2, PRIM2 (human, UniProt P49643-1 1-509)", "T2 sequence (looked up)": "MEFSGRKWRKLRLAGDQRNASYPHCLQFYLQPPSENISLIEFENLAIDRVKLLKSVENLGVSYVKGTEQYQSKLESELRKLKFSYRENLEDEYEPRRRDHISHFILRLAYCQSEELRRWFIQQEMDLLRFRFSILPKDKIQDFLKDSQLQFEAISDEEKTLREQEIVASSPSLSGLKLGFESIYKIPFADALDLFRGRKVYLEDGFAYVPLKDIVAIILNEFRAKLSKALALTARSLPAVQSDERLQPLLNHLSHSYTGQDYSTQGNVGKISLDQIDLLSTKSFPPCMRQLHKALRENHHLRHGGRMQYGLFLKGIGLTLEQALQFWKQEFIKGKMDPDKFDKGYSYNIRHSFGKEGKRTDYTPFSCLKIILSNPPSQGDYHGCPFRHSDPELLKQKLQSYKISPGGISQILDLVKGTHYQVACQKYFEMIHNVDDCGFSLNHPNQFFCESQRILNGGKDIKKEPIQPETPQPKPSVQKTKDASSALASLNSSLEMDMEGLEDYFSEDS"}, "[1]": {"molecular_target": "DNA polymerase-α–primase (Polα–primase) complex, PRIM1–PRIM2–POLA1–POLA2, full-length (human, UniProt P09884 1-1462; Q14181-1 1-598; P49642 2-420; P49643-1 1-509)", "sequence (Q14181 whole entry, one chain of several)": "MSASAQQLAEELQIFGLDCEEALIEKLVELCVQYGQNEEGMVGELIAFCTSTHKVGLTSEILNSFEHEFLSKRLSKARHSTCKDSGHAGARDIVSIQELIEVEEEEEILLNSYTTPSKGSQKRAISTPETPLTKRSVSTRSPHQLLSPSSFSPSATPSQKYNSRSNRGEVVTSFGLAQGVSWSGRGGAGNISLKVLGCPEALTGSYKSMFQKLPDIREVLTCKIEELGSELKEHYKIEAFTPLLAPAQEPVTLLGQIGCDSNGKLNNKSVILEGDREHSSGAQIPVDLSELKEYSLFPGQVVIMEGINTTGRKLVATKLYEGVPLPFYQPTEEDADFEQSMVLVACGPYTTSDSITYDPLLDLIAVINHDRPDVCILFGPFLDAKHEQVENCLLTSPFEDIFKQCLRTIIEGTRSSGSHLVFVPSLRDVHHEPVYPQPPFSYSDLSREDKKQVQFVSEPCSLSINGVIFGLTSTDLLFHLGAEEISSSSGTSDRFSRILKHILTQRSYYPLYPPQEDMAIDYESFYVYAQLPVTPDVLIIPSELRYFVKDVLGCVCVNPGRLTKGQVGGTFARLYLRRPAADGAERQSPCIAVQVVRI"}, "PRIM1": {"molecular_target": "B2"}},
  "data": [
    {"binder": "B1", "values": [
      {"measurement": "binding result", "setting": "POLA1", "value": "binds"}
    ]},
    {"binder": "B2", "values": [
      {"measurement": "binding result", "setting": "PRIM2", "value": "binds"}
    ]},
    {"binder": "B3", "values": [
      {"measurement": "stoichiometry N", "setting": "[1]", "value": 1}
    ]},
    {"binder": "B4", "values": [
      {"measurement": "binding result", "setting": "PRIM1", "value": "binds"}
    ]}
  ]
}
